Laboratory results as given in patent US20230190950A1, “COMPOSITIONS AND METHODS FOR THE TREATMENT OF BACTERIAL INFECTIONS” (Cidara Therapeutics, Inc., priority 2017, published 2023).

Key:
[1] = test system: Escherichia coli BW25113; assay: MIC assay (broth microdilution), Ec BW; type: cell-based; settings: assay media RPMI A
Experimental: (§1) Bacterial strains were stored as glycerol stocks at −80° C. prior to culturing on cation-adjusted Mueller-Hinton agar (MHA; BD cat. no. 211438) at 37° C. Antibacterial activity was assessed against a panel consisting of Escherichia coli, Acinetobacter baumannii, Pseudomonas aeruginosa, and Klebsiella pneumoniae strains (see Table 2).
(§2) Briefly, stock solutions of all antibacterial agents were prepared fresh in appropriate solvents (i.e. PBS, pH 7.4, DMSO, DI, etc.). Stock concentrations were made at 50× the highest final assay concentration and serially diluted 2-fold, 8 or 12 times in a 96-well PCR plate (VWR cat. no. 83007-374). Bacterial cell suspensions generated from MHA plate cultures were prepared in 0.85% saline and adjusted to ˜0.1 OD600 nm. […] Dorschner R A et al., The mammalian ionic environment dictates microbial susceptibility to antimicrobial defense peptides. FASEB J. 20(1):35-42 (2017). Ninety-eight microliters of each cell suspension in MHB were added to test wells in a 96-well assay plate (Costar cat. no. 3370). A Beckman Multimek 96 liquid handling robot was used to dispense 2 μL of each 50× stock compound into the plate containing 98 μL of each strain in MHB (2% final solvent concentration). E. coli strains BW25113 and ATCC 25922 were run in the presence and absence of 50% heat-inactivated fetal bovine serum (FBS; Sigma, cat. no. F4135-100 mL). Plates were mixed by shaking then incubated at 37° C. overnight (16-20 h).

[2] = test system: Escherichia coli ATCC 25922; assay: MIC assay (broth microdilution), Ec 25922; type: cell-based; settings: assay media RPMI A
Experimental: as §1, §2

[3] = test system: Escherichia coli BW25113 4X-12 (COL-R); assay: MIC assay (broth microdilution), Ec BW 4X-12 (COL-R); type: cell-based; settings: assay media RPMI A
Experimental: as §1
(§3) Briefly, stock solutions of all antibacterial agents were prepared fresh in appropriate solvents (i.e. PBS, pH 7.4, DMSO, DI, etc.). Stock concentrations were made at 50× the highest final assay concentration and serially diluted 2-fold, 8 or 12 times in a 96-well PCR plate (VWR cat. no. 83007-374). Bacterial cell suspensions generated from MHA plate cultures were prepared in 0.85% saline and adjusted to ˜0.1 OD600 nm. Next, cell suspensions were diluted 1:200 in RPMI containing 5% Luria Broth (LB) to improve bacterial growth (BD Difco, cat. no. 244620) to a concentration of ˜5×10^5 CFU (colony-forming units)/mL. […] Later, conjugates 16 and 17, and 20-25 were evaluated in RPMI 1640 medium (+) L-glutamine, (+) sodium bicarbonate, pH 7.4 (“RPMI B”; Gibco, cat. no. 11875-085) as has been described as a more physiologically-relevant media for susceptibility testing of antibacterial compounds. Dorschner R A et al., The mammalian ionic environment dictates microbial susceptibility to antimicrobial defense peptides. FASEB J. 20(1):35-42 (2017). Ninety-eight microliters of each cell suspension in MHB were added to test wells in a 96-well assay plate (Costar cat. no. 3370). A Beckman Multimek 96 liquid handling robot was used to dispense 2 μL of each 50× stock compound into the plate containing 98 μL of each strain in MHB (2% final solvent concentration). E. coli strains BW25113 and ATCC 25922 were run in the presence and absence of 50% heat-inactivated fetal bovine serum (FBS; Sigma, cat. no. F4135-100 mL). Plates were mixed by shaking then incubated at 37° C. overnight (16-20 h).

[4] = test system: Escherichia coli ATCC BAA-2469; assay: MIC assay (broth microdilution), Ec 2469; type: cell-based; settings: assay media RPMI A
Experimental: as §1, §2

[5] = test system: Escherichia coli BW25113 + pUC18-mcr-1; assay: MIC assay (broth microdilution), Ec BW (mcr-1); type: cell-based; settings: assay media RPMI A
From the text: An mcr-1 expression plasmid was constructed (GenScript; Piscataway, N.J.) using the pUC18 high copy number plasmid (Yanisch-Perron, et al., 1985). A 1649-bp fragment was synthesized containing, in order from 5′ to 3′: EcoR1 restriction site (5′-GAATTC-3′), a ribosomal binding site (5′-AGGAGG-3′), a 5-bp native start codon upstream sequence (5′-TTCTC-3′) from the mcr-1-bearing plasmid pHNSHP45 (Liu, Y Y, et al., 2015; GenBank Accession #KP347127), the 1626-bp mcr-1 open reading frame with stop codon (“orf00073” of GenBank Accession #KP347127), and finally an Xba1 restriction site sequence (5′-TCTAGA-3′). […] The pUC18-mcr-1 plasmid was transformed into chemically-competent E. coli BW25113 (Coli Genetic Stock Center #7636) as described previously (Chung, et al., PNAS. 1989), recovered for 1 h shaking at 37° C. in Super Optimal broth with Catabolite repression (SOC) media and then aliquots were plated on Luria-Bertani (LB) media containing 100 μg/mL of carbenicillin. Putative transformant colonies were then verified in MIC assays.
as §1
Briefly, stock solutions of all antibacterial agents were prepared fresh in appropriate solvents (i.e. PBS, pH 7.4, DMSO, DI, etc.). Stock concentrations were made at 50× the highest final assay concentration and serially diluted 2-fold, 8 or 12 times in a 96-well PCR plate (VWR cat. no. 83007-374). Bacterial cell suspensions generated from MHA plate cultures were prepared in 0.85% saline and adjusted to ˜0.1 OD600 nm. […] Later, conjugates 16 and 17, and 20-25 were evaluated in RPMI 1640 medium (+) L-glutamine, (+) sodium bicarbonate, pH 7.4 (“RPMI B”; Gibco, cat. no. 11875-085) as has been described as a more physiologically-relevant media for susceptibility testing of antibacterial compounds. […]

[6] = test system: Pseudomonas aeruginosa PAO1; assay: MIC assay (broth microdilution), Pa PAO1; type: cell-based; settings: assay media RPMI A
Experimental: as §1, §3

[7] = test system: Acinetobacter baumannii ABS075-UW; assay: MIC assay (broth microdilution), Ab ABS075; type: cell-based; settings: assay media RPMI A
Experimental: as §1, §2

[8] = test system: Acinetobacter baumannii ATCC 179778; assay: MIC assay (broth microdilution), Ab 17978; type: cell-based; settings: assay media RPMI A
Experimental: as §1
(§4) Briefly, stock solutions of all antibacterial agents were prepared fresh in appropriate solvents (i.e. PBS, pH 7.4, DMSO, DI, etc.). Stock concentrations were made at 50× the highest final assay concentration and serially diluted 2-fold, 8 or 12 times in a 96-well PCR plate (VWR cat. no. 83007-374). Bacterial cell suspensions generated from MHA plate cultures were prepared in 0.85% saline and adjusted to ˜0.1 OD600 nm. Next, cell suspensions were diluted 1:200 in RPMI containing 5% Luria Broth (LB) to improve bacterial growth (BD Difco, cat. no. 244620) to a concentration of ˜5×10^5 CFU (colony-forming units)/mL. […] Later, conjugates 16 and 17, and 20-25 were evaluated in RPMI 1640 medium (+) L-glutamine, (+) sodium bicarbonate, pH 7.4 (“RPMI B”; Gibco, cat. no. 11875-085) as has been described as a more physiologically-relevant media for susceptibility testing of antibacterial compounds. Dorschner R A et al., The mammalian ionic environment dictates microbial susceptibility to antimicrobial defense peptides. FASEB J. 20(1):35-42 (2017). […]

[9] = test system: Pseudomonas aeruginosa ATCC 27853; assay: MIC assay (broth microdilution), Pa 27853; type: cell-based; settings: assay media RPMI A
Experimental: as §1, §4

[10] = test system: Acinetobacter baumannii ATCC 19606; assay: MIC assay (broth microdilution), Ab 19606; type: cell-based; settings: assay media RPMI A
Experimental: as §1, §2

[11] = test system: E. coli ATCC 25922; assay: Complement-dependent cytotoxicity (CDC) assay; type: cell-based, Escherichia coli; settings: 0.2 uM; 10% normal human serum; 90 minutes
Experimental: Gram-negative bacteria were cultured overnight in Luria-Bertani (LB) (BD Difco™ Cat. 244620) at 37° C. under constant agitation. The next day, bacteria were grown to log phase until the OD600 reached 0.4 (˜10^8 CFU/mL). Bacteria were washed in DPBS pH 7.4 (Gibco 10010-023) resuspended in RPMI 1640 (Gibco 11-835-055) at 10^6 CFU/mL and […] was added to the wells of a 96-well, TC-treated, polystyrene plate (Fisher 08-772-2C).
The plates were incubated at 37° C. for 90 minutes. At the end of the assay, wells were serially diluted in sterile water and remaining bacteria were cultured overnight at 37° C. on agar plates. Colonies were counted the next day and CFU/mL and % survival normalized to RPMI control was determined using the following equations: CFU/mL=(colonies*dilution factor)/volume and […] normalized to RPMI=([CFU/mL of test condition]/[CFU/mL of molecule in RPMI])*100.

| Molecule | MIC, Ec BW [1] | MIC, Ec BW + FBS ([1]; 50% heat-inactivated FBS) | MIC, Ec 25922 [2] | MIC, Ec 25922 + FBS ([2]; 50% heat-inactivated FBS) | MIC, Ec BW 4X-12 (COL-R) [3] | MIC, Ec 2469 [4] | MIC, Ec BW (mcr-1) [5] | MIC Pa PAO1 [6] | MIC Ab AB5075 [7] | MIC Ab 17978 [8] | MIC Pa 27853 [9] | MIC Ab 19606 [10] | antibacterial activity in the presence of 10% complement active NHS [11] |
| --- | --- | --- | --- | --- | --- | --- | --- | --- | --- | --- | --- | --- | --- |
| Conjugate 26: "Conjugate of m-IgG2a(His)6 Fc-3(Int-13)"; mlgG2a(His)6 Fc (SEQ ID NO: 6), reduced hinge disulfides; DAR=2/Fc dimer (conjugate, conjugated to Int-13 at hinge cysteines, "Conjugate of m-IgG2a(His)6 Fc-3(Int-13)"; DAR=2/Fc dimer) PRGPTIKPCPPCKCPAPNLLGGPSVFIFPPKIKDVLMISLSPIVTCVVVDVSEDDPDVQISWFVNNVEVHTAQTQTHREDYNSTLRVVSALPIQHQDWMSGKEFKCKVNNKDLPAPIERTISKPKGSVRAPQVYVLPPPEEEMTKKQVTLTCMVTDFMPEDIYVEWTNNGKTELNYKNTEPVLDSDGSYFMYSKLRVEKKNWVERNSYSCSVVHEGLHNHHTTKSFSRTPGKHHHHHH | 16 µg/mL | 32 µg/mL | >128 µg/mL | 128 µg/mL | >128 µg/mL | 32 µg/mL | >128 µg/mL | 64 µg/mL | 32 µg/mL | 64 µg/mL | 16 µg/mL | 128 µg/mL |  |
| control molecule: "unconjugated control Fc molecule (m-IgG2a type; SEQ ID NO: 2)" (protein, listed as Mus musculus) PRGPTIKPCPPCKCPAPNLLGGPSVFIFPPKIKDVLMISLSPIVTCVVVDVSEDDPDVQISWFVNNVEVHTAQTQTHREDYNSTLRVVSALPIQHQDWMSGKEFKCKVNNKDLPAPIERTISKPKGSVRAPQVYVLPPPEEEMTKKQVTLTCMVTDFMPEDIYVEWTNNGKTELNYKNTEPVLDSDGSYFMYSKLRVEKKNWVERNSYSCSVVHEGLHNHHTTKSFSRTPGK |  |  |  |  |  |  |  |  |  |  |  |  | no antibacterial activity |
